Measurements published in patent publication US20090104147A1.

Legend:
[1] = target: porcine sialoadhesin (pig) (UniProt A7LCJ3); test: cell-based or functional assay
[2] = target: recombinant sialoadhesin expressed on CHO cells (CHO-Sn); test: cell-based or functional assay

**Q.** Which results are given for mAb 41D3/saporin conjugate?
**A.** % Living cells, primary porcine macrophages, conjugate concentration 0.3*10^-6 [1]: 30.4%; % Living cells, primary porcine macrophages, conjugate concentration 10^-7 [1]: 29.3%; MTT assay OD value, primary porcine macrophages, column head 10 [1]: 0.537 OD; MTT assay OD value, primary porcine macrophages, column head 30 [1]: 0.541 OD; % Living cells, CHO-Sn cells, conjugate concentration 0.1*10^-6 [2]: 64.4%; % Living cells, CHO-Sn cells, conjugate concentration 0.25*10^-6 [2]: 57.1%; % Living cells, CHO-Sn cells, conjugate concentration 0.5*10^-6 [2]: 64.2%; % Living cells, CHO-Sn cells, conjugate concentration 10^-7 [2]: 63%; MTT assay OD value, CHO-Sn cells, 25 [2]: 1.35 OD; MTT assay OD value, CHO-Sn cells, column head 6.25 [2]: 1.45 OD; MTT assay OD value, CHO-Sn cells, column head 12.5 [2]: 1.47 OD; MTT assay OD value, CHO-Sn cells, column head 50 [2]: 1.47 OD
